According to US20080267949A1, “Peptides capable of binding to serum proteins” (Ablynx N.V., priority 2006, published 2008):
Bridge positions count the residues as written; N and C are the ends. Ends that are not written are not given here.

B1: 2D3-17D12(S): 17D12 peptide (FR3 Cys replaced with Ser) fused at the C-terminus of VHH 2D3 without linker, expressed on pIII of M13 phage (other, not shown: large carriers)
chain: DTAVYYSNAAASYSDYDVFGGGTDFGPWGQGTQV
modifications: not fully specified (N-terminus); also: fused to C-terminus of VHH 2D3, displayed on M13 pIII
notes: VHH-peptide fusion tested as phage; also called VHH-17D12(S)
B2: 17D12-CDR3-C, constrained truncated CDR3 loop of 17D12 without flanking FR, expressed on pIII of M13 phage (peptide, not shown: large carriers)
peptide: CAAASYSDYDVFGGGTDFGPAC
modifications: disulfide 1-22; not fully specified
notes: Tested as phage; also called constrained truncated peptide
B3: 2D3-GlySer-17D12(S): 17D12 peptide (FR3 Cys replaced with Ser) fused at the C-terminus of VHH 2D3 via a Gly4Ser-Gly3Ser linker, expressed on pIII of M13 phage (other, not shown: large carriers)
chain: GGGGSGGGSDTAVYYSNAAASYSDYDVFGGGTDFGPWGQGTQV
modifications: not fully specified (N-terminus); also: fused to C-terminus of VHH 2D3, displayed on M13 pIII
notes: VHH-peptide fusion tested as phage; also called VHH-GlySer-17D12(S)

What was measured:
[1] = molecular target: T1, human serum albumin (HSA) (Homo sapiens, UniProt P02768); assay: Phage binding assay: peptide expressed on pIII of M13 phage, on coated HSA (anti-M13 detection, Odyssey read-out); conditions: for Binding to HSA (Example 7, VHH fusions on phage): 1/2 dilution series starting with 10^12 phages/mL; for Binding to HSA (Example 4): 1/2 dilution series starting with 7.5×10^11 phages/mL; for Binding to HSA (Example 5, cross-reactivity): different phage concentrations
T1 construct: purchased Sigma A5763
Method: (§1) After two selection rounds, monoclonal phage were screened for binding on HSA versus negative control antigen, ovalbumin (A5378, Sigma). Wells of a Maxisorp microtiter plate (Nunc) were coated using 10 μg/mL HSA or ovalbumin and blocked with SuperBlock T20 PBS Blocking Buffer (Pierce) to prevent non-specific binding. Phages, produced in 96-well plate, were diluted 1/10 in 1:1 (v:v) Superblock T20 PBS Blocking Buffer:PBS+0.05% Tween-20 and incubated on both HSA and ovalbumin. Bound phages were detected using anti-M13 (GE Healthcare) and goat anti-mouse IRDye700 (Rockland) and signals were read-out on Odyssey (LI-COR Biosciences). […] Both ‘hits’ were selected from the same library, i.e. originating from llama 117 in the non-constrained format. […] This peptide is referred to as 17D12. Its full amino acid sequence is given in SEQ ID NO: 1, and its encoding nucleotide sequence is given in SEQ ID NO:2. The amino acid sequence of the CDR3 loop is given in SEQ ID NO:3.
(§2) The phage binding assay was performed essentially as described in example 3. Phages, produced in 10 mL culture volume, were incubated on both HSA and ovalbumin in a ½ dilution series, starting with 7.5×10^11 phages/mL. […] Non-specific binding to ovalbumin is slightly higher for the constrained truncated peptide.
(§3) Binding of 17D12, as selected from primary screening after 2 selection rounds on HSA, to serum albumin of different species [mouse serum albumin (MSA, A3559, Sigma), cynomolgus serum albumin (CSA, in-house production), bovine serum albumin (BSA, A6003, Sigma) and HSA] and to negative control antigens [ovalbumin, human tumor necrosis factor α (TNF, in-house production)] was assessed using different phage concentrations. Additionally, similar binding studies were performed with two truncated variants of 17D12. Both peptides, i.e. 17D12-CDR3-NC (SEQ ID NO: 26) and 17D12-CDR3-C (SEQ ID NO;27), lack the flanking FR residues of 17D12 and the former is a non-constrained loop, whereas the latter is constrained (FIG. 4).
(§4) The phage binding assay was performed essentially as described in example 4.
(§5) The phage binding assay to HSA and ovalbumin was performed essentially as described in example 4. Phages, produced in 10 mL culture volume, were incubated on both HSA and ovalbumin in a ½ dilution series, starting with 10^12 phages/mL.

[2] = molecular target: T2, ovalbumin (Gallus gallus, UniProt P01012); assay: Phage binding assay on coated negative control antigen ovalbumin; conditions: for Binding to negative control ovalbumin (Example 7): 1/2 dilution series starting with 10^12 phages/mL; for Binding to negative control ovalbumin (Example 4): 1/2 dilution series starting with 7.5×10^11 phages/mL; for Non-specific binding to irrelevant protein ovalbumin (Example 5): different phage concentrations
T2 construct: purchased Sigma A5378
T2 sequence (P01012 1-386): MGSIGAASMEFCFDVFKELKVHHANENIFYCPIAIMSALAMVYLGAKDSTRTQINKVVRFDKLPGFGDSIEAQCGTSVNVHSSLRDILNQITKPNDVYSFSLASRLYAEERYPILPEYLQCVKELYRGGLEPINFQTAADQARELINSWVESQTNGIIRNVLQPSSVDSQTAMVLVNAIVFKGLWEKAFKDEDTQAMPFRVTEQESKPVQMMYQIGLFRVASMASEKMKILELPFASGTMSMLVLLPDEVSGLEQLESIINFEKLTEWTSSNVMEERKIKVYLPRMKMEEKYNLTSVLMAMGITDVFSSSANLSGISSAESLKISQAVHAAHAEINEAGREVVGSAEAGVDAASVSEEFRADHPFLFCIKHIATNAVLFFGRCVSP
Method: as §1, §2, §3, §4, §5

[3] = molecular target: T3, human tumor necrosis factor α (TNF) (Homo sapiens, UniProt P01375); assay: Phage binding assay, specificity against negative control antigen TNF; conditions: different phage concentrations
T3 construct: made in house
Method: as §1, §3, §4

[4] = molecular target: T4, mouse serum albumin (MSA) (Mus musculus, UniProt P07724); assay: Phage binding assay, cross-reactivity to mouse serum albumin; conditions: different phage concentrations
T4 construct: purchased Sigma A3559
Method: as §1, §3, §4

[5] = molecular target: T5, bovine serum albumin (BSA) (Bos taurus, UniProt P02769); assay: Phage binding assay, cross-reactivity to bovine serum albumin; conditions: different phage concentrations
T5 construct: purchased Sigma A6003
Method: as §1, §3, §4

[6] = molecular target: T6, cynomolgus serum albumin (CSA) (Macaca fascicularis, UniProt A2V9Z4); assay: Phage binding assay, cross-reactivity to cynomolgus serum albumin; conditions: different phage concentrations
T6 construct: made in house
Method: as §1, §3, §4

[7] = molecular target: T7, ovalbumin (negative control antigen) (UniProt P01012 2-386); assay: phage binding assay: ovalbumin coated on Maxisorp, M13 phage in 1/2 dilution series from 10^12 phages/mL, Odyssey intensity
T7 construct: Bought protein
T7 sequence (looked up): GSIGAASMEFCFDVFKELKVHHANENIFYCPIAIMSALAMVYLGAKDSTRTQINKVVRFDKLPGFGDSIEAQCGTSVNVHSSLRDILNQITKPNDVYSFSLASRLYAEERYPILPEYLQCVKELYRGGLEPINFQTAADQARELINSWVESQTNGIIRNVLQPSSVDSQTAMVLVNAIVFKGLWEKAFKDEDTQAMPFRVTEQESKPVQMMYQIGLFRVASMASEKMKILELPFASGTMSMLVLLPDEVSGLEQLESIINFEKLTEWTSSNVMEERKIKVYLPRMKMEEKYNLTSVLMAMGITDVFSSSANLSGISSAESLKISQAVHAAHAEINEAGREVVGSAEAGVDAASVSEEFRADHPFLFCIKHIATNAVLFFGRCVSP
Method: The phage binding assay to HSA and ovalbumin was performed essentially as described in example 4. Phages, produced in 10 mL culture volume, were incubated on both HSA and ovalbumin in a ½ dilution series, starting with 10¹² phages/mL. Dose-dependent binding to HSA was retained upon fusion of the peptide 17D12 at the C-terminus of a non-albumin binding intact VHH in the presence or absence of a GlySer linker (FIG. 9).

[8] = molecular target: T8, bovine serum albumin (bovine, UniProt P02769 25-607); assay: phage binding assay on coated Maxisorp wells, 5 phage dilutions per peptide, Odyssey image
T8 construct: also called BSA
Method: as §3
(§6) The phage binding assay was performed essentially as described in example 4. Full length 17D12 peptide as well as truncated peptides, 17D12-CDR3-NC and 17D12-CDR3-C, bind dose-dependently to HSA and CSA, whereas reactivity to MSA and BSA was not apparent in the assay performed (FIG. 6). There is no significant non-specific binding of 17D12 and 17D12-CDR3-NC to irrelevant proteins tested (ovalbumin and TNF). In contrast, there is a subtle degree of non-specific binding with the constrained truncated peptide.

[9] = molecular target: T9, mouse serum albumin (mouse, UniProt P07724 25-608); assay: as above
T9 construct: also called MSA
Method: as §3, §6

[10] = molecular target: T10, human serum albumin (human, UniProt P02768 25-609); assay: phage binding assay: 10 µg/mL HSA coated on Maxisorp, M13 phage displaying the peptide on pIII in 1/2 dilution series, anti-M13 + goat anti-mouse IRDye700, Odyssey intensity
T10 construct: Bought protein; also called HSA
Method: After two selection rounds, monoclonal phage were screened for binding on HSA versus negative control antigen, ovalbumin (A5378, Sigma). Wells of a Maxisorp microtiter plate (Nunc) were coated using 10 μg/mL HSA or ovalbumin and blocked with SuperBlock T20 PBS Blocking Buffer (Pierce) to prevent non-specific binding. Phages, produced in 96-well plate, were diluted 1/10 in 1:1 (v:v) Superblock T20 PBS Blocking Buffer:PBS+0.05% Tween-20 and incubated on both HSA and ovalbumin. Bound phages were detected using anti-M13 (GE Healthcare) and goat anti-mouse IRDye700 (Rockland) and signals were read-out on Odyssey (LI-COR Biosciences). […] This peptide is referred to as 17D12. Its full amino acid sequence is given in SEQ ID NO: 1, and its encoding nucleotide sequence is given in SEQ ID NO:2. The amino acid sequence of the CDR3 loop is given in SEQ ID NO:3.
as §2, with “7.5×10¹¹” for “7.5×10^11”

[11] = molecular target: T11, cynomolgus serum albumin (cynomolgus, UniProt A2V9Z4 25-608); assay: phage binding assay on coated Maxisorp wells, 5 phage dilutions per peptide (concentrations not given), Odyssey image
T11 construct: also called CSA; cynoSA
Method: as §3, §6

T6 sequence (A2V9Z4 25-608): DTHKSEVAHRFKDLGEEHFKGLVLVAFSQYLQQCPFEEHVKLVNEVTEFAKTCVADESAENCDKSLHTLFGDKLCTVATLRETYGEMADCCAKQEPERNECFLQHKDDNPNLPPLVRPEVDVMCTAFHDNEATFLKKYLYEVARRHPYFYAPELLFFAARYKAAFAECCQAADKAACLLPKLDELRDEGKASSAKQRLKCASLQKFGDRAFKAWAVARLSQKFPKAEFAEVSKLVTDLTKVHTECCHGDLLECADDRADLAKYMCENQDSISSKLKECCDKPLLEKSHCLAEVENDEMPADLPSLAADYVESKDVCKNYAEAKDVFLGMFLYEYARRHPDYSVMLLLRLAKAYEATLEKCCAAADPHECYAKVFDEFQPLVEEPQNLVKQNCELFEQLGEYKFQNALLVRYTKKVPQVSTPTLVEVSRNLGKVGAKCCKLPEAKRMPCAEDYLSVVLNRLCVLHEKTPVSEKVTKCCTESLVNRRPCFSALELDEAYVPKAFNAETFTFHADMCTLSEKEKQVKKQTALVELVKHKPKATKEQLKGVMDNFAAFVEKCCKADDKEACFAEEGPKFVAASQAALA
T3 sequence (P01375 77-233 limits assumed): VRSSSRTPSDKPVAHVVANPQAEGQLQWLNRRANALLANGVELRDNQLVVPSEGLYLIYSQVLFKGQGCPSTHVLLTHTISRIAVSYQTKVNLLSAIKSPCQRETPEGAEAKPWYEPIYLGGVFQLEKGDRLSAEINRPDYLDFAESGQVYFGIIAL
T4 sequence (P07724 25-608): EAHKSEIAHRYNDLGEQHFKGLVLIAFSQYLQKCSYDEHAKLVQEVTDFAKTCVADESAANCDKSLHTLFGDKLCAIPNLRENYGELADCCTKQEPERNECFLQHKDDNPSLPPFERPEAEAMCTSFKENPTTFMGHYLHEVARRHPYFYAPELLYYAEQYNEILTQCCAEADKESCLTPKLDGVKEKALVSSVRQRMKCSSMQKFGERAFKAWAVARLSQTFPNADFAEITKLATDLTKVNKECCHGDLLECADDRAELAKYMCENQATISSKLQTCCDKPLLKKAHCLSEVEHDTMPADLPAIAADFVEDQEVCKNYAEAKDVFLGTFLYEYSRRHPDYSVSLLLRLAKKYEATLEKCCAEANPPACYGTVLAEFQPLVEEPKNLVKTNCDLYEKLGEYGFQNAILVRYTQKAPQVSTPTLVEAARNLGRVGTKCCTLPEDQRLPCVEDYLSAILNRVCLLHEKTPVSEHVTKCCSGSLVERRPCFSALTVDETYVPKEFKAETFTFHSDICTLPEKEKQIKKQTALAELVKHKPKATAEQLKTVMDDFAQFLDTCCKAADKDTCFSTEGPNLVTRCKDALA
T5 sequence (P02769 25-607): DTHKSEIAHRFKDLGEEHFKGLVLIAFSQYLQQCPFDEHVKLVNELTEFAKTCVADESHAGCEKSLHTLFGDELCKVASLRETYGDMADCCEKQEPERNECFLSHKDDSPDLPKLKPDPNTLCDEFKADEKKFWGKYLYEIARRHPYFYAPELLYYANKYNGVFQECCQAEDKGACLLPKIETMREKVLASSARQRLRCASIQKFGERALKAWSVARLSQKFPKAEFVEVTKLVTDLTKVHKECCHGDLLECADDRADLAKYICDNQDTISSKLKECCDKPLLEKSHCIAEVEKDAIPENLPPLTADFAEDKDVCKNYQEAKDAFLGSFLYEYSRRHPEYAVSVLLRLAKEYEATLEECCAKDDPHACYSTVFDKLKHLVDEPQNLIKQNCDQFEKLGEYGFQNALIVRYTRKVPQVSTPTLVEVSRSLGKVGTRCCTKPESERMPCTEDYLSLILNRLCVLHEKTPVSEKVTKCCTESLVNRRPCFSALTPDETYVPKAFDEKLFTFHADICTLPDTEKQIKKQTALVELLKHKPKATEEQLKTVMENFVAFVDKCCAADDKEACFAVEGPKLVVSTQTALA
T11 sequence (A2V9Z4 25-608 limits assumed): as the sequence (A2V9Z4 25-608) above
T9 sequence (P07724 25-608 limits assumed): as the sequence (P07724 25-608) above
T8 sequence (P02769 25-607 limits assumed): as the sequence (P02769 25-607) above

Row | Molecule | Binding to HSA (Example 7, VHH fusions on phage) [1] | Binding to negative control ovalbumin (Example 7) [2] | Binding to HSA (Example 4) [1] | Binding to HSA (Example 5, cross-reactivity) [1] | Non-specific binding to irrelevant protein TNF [3] | Reactivity to MSA [4] | Reactivity to BSA [5] | Binding to negative control ovalbumin (Example 4) [2] | Non-specific binding to irrelevant protein ovalbumin (Example 5) [2] | Binding to CSA [6] | other results
1 | 2D3-17D12(S): 17D12 (FR3 Cys replaced with Ser) fused at C-terminus of VHH 2D3 without linker, on M13 phage (DTAVYYSNAAASYSDYDVFGGGTDFGPWGQGTQV; not fully specified (N-terminus); also: displayed on M13 phage) | bind dose-dependently to HSA | not to negative control peptide, ovalbumin |  |  |  |  |  |  |  |  | 
2 | dtavyycnaaasysdydvfgggtdfgpwgqgtqv (DTAVYYCNAAASYSDYDVFGGGTDFGPWGQGTQV; also: displayed on M13 pIII; listed as Lama glama) [17D12] | bind dose-dependently to HSA | not to negative control peptide, ovalbumin | bind dose-dependently to HSA | bind dose-dependently | no significant non-specific binding | not apparent | not apparent | not to negative control peptide, ovalbumin | no significant non-specific binding | bind dose-dependently | Binding of monoclonal phage to HSA (screening) ([1]; screening after two selection rounds on HSA, phages diluted 1/10, signal/background ratio very low): bind to HSA; Binding of monoclonal phage to ovalbumin (screening) ([2]; screening after two selection rounds on HSA, phages diluted 1/10): not to ovalbumin
3 | 2D3-GlySer-17D12(S): 17D12 (FR3 Cys replaced with Ser) fused at C-terminus of VHH 2D3 via Gly4Ser-Gly3Ser linker, on M13 phage (GGGGSGGGSDTAVYYSNAAASYSDYDVFGGGTDFGPWGQGTQV; not fully specified (N-terminus); also: displayed on M13 phage) | bind dose-dependently to HSA | not to negative control peptide, ovalbumin |  |  |  |  |  |  |  |  | 
4 | caaasysdydvfgggtdfgpac (CAAASYSDYDVFGGGTDFGPAC; disulfide 1-22 (inferred); also: displayed on M13 phage pIII) [17D12-CDR3-C, truncated 17D12 lacking flanking FR residues, constrained loop, on M13 phage] |  |  | bind dose-dependently to HSA | bind dose-dependently | subtle degree of non-specific binding | not apparent | not apparent | not to negative control peptide, ovalbumin | subtle degree of non-specific binding | bind dose-dependently | 
5 | aaasysdydvfgggtdfgpa (AAASYSDYDVFGGGTDFGPA; also: displayed on M13 pIII) [17D12-CDR3-NC, truncated 17D12 lacking flanking FR residues, non-constrained loop, on M13 phage] |  |  | bind dose-dependently to HSA | bind dose-dependently | no significant non-specific binding | not apparent | not apparent | not to negative control peptide, ovalbumin | no significant non-specific binding | bind dose-dependently | 
6 | B1 |  |  |  |  |  |  |  |  |  |  | binding result [7]: no binding (tested: 100 x10^10 phage/mL)
7 | B2 |  |  |  |  |  |  |  |  |  |  | binding result [8]: no binding; binding result [9]: no binding; EC50 (read off the curve) [10]: ~6e+10 phage/mL; binding result [11]: binds
8 | B3 |  |  |  |  |  |  |  |  |  |  | binding result [7]: no binding (tested: 100 x10^10 phage/mL)
